Source: US20200291135A1 (INSPIRNA, published 2020)

Legend:
[1] = target: T1, extracellular MERTK domain (W3725-hPro1, Sino Biological, 10298-HCCH) (human, UniProt Q12866 21-505); assay: SPR, affinity format: z10 captured by anti-human Fc on CM5 chip, extracellular MERTK domain as analyte, 1:1 fit; Affinity, SPR
T1 construct: extracellular domain; also called human extracellular MERTK
T1 sequence (looked up): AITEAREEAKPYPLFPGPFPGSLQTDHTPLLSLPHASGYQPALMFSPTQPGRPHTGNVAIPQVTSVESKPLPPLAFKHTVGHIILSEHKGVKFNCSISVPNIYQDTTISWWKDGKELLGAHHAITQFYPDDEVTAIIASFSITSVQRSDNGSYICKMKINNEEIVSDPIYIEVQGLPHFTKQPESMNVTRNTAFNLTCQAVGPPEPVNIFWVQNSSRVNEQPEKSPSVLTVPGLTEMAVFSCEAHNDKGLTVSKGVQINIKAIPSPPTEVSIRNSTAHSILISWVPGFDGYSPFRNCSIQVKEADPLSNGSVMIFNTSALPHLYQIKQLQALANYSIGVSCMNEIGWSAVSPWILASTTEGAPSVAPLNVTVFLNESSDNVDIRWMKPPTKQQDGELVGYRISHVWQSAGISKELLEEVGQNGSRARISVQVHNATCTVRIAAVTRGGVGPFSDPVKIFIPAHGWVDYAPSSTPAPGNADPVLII
Method: A CM5 sensor chip was activated for 420 s with a mixture of 400 mM EDC and 100 mM NHS. […] The chip was deactivated by 1 M ethanolamine-HCl. […] 10 mM glycine pH 1.5 as regeneration buffer was injected following every dissociation phase. The chip was regenerated with 10 mM glycine pH 1.5. One surface channel (without captured ligand) was used as control surface for reference subtraction. Final data of each interaction was deducted from reference channel and buffer channel data. […] A molecular weight of 54 kDa was used to calculate the molar concentration of the analyte.

[2] = target: T2, murine MERTK extracellular domain conjugated to an IgG Fc domain (murine, UniProt Q60805 19-497); assay: competition ELISA: soluble mMer-Fc (varied) equilibrated with z10, free z10 caught on plate-coated hMER
T2 construct: extracellular domain; also called mMER; not shown: IgG Fc domain
T2 sequence (looked up): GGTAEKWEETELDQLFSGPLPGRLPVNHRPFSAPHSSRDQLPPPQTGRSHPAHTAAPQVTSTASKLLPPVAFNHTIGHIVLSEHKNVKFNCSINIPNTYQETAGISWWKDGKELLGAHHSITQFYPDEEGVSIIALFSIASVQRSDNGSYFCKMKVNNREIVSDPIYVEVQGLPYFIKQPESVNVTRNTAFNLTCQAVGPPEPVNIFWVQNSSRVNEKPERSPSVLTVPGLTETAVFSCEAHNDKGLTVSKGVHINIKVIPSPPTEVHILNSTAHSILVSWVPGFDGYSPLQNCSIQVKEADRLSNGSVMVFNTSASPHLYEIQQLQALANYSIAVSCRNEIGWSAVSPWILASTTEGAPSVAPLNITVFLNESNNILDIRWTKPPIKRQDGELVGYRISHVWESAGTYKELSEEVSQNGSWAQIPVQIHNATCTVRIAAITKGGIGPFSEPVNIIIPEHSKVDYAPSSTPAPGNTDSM
Method: (§1) Plates were washed three times with PBS 0.1% Tween and blocked with 3% non-fat dry skim milk in PBS for 2 h.
(§2) During the saturation step, dilutions of the antigen hAxl (RnD Systems, 154-AL-100), hTyro3 (RnD Systems, 859-DK-100) or mMER (RnD Systems, 591-MR-100)] were prepared at 50 nM as the highest concentration, and serially diluted 1:1 to 0.098 nM in PBS. […] Then, the saturated plate was washed three times with PBS 0.1% Tween and the antigen-antibody mixture was added to the wells in duplicate and incubated for 1 h at room temperature. The plate was then washed three times with PBS 0.1% Tween and incubated with anti-human Alkaline Phosphatase antibody (Sigma, SAB 3701248) at a dilution of 1:3000 in PBS for 1 h at room temperature. After washing three times with PBS 0.1% Tween, 100 uL of Alkaline Phosphatase Yellow (pNPP) liquid substrate system (Sigma, P7998) was added in each well and incubated for 70 min at room temperature. Plates were read at 405 nm and at 570 nm, to correct plate inconsistencies, using Glomax Discover System from Promega The absorbance was plotted as a function of antigen concentration and the Kd was calculated using GraphPad Prism 7.0c.

[3] = target: T3, human Tyro3 extracellular domain (human, UniProt Q06418 41-429); assay: competition ELISA: soluble hTyro3-Fc (varied) equilibrated with z10, free z10 caught on plate-coated hMER
T3 construct: extracellular domain; also called hTyro3
T3 sequence (looked up): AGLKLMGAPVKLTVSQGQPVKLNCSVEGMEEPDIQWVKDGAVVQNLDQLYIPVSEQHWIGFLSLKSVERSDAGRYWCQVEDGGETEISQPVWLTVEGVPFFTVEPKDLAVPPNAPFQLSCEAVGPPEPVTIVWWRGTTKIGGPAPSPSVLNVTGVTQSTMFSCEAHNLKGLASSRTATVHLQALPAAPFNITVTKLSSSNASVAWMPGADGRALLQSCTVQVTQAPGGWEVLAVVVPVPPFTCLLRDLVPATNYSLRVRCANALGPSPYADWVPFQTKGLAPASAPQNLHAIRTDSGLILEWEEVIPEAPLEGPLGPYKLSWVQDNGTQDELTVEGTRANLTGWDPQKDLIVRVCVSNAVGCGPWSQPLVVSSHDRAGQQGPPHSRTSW
Method: as §1, §2

- Kd [1]: 3 nM
- binding result [2]: no binding (tested: 50 nM)
- binding result [3]: no binding (tested: 50 nM)
B1: z10 antibody (antibody, human IgG1, kappa, V domains shown)
VH: QVQLVQSGAEVKKPGASVKVSCKASGYTFTNYGMNWVRQAPGQGLEWMGWINTYTGEPTYADDFKGRVTFTTDTSTSTAYMELRSLRSDDMAVYYCARKSTVVSRYFDVWGQGTTVTVSS
VL: DIQMTQSPSFLSASVGDRVTITCKASQDVGDAVTWYQQKPGKAPKLLIYWASTRHTGVPDRFSGSGSGTDFTLTISSLQPEDFATYYCQQYRSYPLTFGQGTKLEIKR
notes: also called MERTK (z10) antibody
